In US20100260765A1 (AstraZeneca / MedImmune, published 2010):

B1: 32C11 (antibody, V domains shown)
VH: EVQLLESGGTLVQPGGSLRLSCAASGFTFSNYAMSWVRQAPGKGLEWVSAISGRAGSTYYADSVKGRFTISRDNSKNTLFLQMNSLRAEDTAVYYCAKASGDDWGQGTLVTVSS
VL: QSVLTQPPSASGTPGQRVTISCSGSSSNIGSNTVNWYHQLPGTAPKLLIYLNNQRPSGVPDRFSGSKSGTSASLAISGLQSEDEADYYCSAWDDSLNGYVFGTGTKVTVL
B2: 1G6 (antibody, V domains shown)
VH: EVQLLESGGGLVQPGGSLRLSCAASGFTFSSYAMSWVRQAPGKGLEWVSAISGGGGNTYYADSVKGRFTISRDNSKNTLYLQMNSLRAEDTAVYYCSKVATDYWGQGTLVTVSS
VL: QPVLTQSSSASASLGSSVKLTCTLSSGHSSYIIAWHQQQPGKAPRYLMKLEGSGSYNKGSGVPDRFSGSSSGADRYLTISNLQFEDEADYYCETWDSYTVVFGGGTKLTVL
notes: Fully human mAb from XenoMouse hybridoma, tested as hybridoma supernatant
B3: 24B3 (antibody, V domains shown)
VH: EVQLVESGGGLVKPGGSLRLSCAASGFTFSTYSMNWVRQAPGKGLEWVSFISGRSSYIYYADSVKGRFTISRDNAKNSLYLQMNSLRAEDTAVYYCSKDDWFEELWGQGTLVTVSS
VL: DIQMTQSPSSLSASVGDRVTITCRASQGIRSDLGWYQQKPGKAPKRLIYATSSLQSGVPSRFSGSGSGTEFTLTISSLQPEDFATYYCLQHNRYPWTFGQGTKVEIK

Key:
[1] = target: T1, KDR (human, UniProt P35968 20-1356); test: cell-based or functional assay
T1 sequence (P35968 20-1356): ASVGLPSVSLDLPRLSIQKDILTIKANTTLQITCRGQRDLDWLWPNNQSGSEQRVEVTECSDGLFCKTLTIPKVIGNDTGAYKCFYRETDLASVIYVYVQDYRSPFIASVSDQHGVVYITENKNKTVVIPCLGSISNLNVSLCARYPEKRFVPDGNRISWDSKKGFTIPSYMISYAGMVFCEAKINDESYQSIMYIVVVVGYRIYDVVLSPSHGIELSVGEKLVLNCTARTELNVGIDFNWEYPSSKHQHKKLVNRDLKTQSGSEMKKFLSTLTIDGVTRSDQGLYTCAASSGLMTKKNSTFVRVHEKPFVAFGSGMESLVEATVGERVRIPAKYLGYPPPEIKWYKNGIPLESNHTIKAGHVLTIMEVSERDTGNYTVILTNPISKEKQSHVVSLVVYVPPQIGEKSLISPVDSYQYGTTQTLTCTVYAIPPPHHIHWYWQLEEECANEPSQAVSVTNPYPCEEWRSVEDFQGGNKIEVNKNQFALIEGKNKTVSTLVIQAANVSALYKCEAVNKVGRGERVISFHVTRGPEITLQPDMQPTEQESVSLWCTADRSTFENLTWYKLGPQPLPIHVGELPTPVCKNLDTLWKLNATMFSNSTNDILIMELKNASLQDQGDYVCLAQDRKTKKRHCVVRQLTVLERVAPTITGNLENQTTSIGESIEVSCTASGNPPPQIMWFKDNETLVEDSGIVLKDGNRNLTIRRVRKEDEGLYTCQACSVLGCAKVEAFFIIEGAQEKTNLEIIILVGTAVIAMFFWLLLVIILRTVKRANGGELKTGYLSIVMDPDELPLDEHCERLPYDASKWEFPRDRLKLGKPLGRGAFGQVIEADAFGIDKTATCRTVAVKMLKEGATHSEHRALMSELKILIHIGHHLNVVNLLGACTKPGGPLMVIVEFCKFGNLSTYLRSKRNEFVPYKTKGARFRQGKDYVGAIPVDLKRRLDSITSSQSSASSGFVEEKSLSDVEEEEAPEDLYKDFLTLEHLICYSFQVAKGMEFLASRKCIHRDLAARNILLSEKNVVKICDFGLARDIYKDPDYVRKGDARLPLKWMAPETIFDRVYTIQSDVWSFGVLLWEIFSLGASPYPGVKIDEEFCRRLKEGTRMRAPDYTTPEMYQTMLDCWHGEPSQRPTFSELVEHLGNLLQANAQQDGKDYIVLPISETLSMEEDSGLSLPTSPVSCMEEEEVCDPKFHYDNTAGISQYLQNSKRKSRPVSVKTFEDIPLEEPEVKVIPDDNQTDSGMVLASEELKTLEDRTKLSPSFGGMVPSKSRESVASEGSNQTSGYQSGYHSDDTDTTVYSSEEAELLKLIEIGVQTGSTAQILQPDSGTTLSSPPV

[2] = target: T1, KDR; test: cell-based or functional assay; remark: listed apart in the source
[3] = target: T1, KDR; test: cell-based or functional assay; remark: listed apart in the source
[4] = target: T1, KDR; test: cell-based or functional assay; remark: listed apart in the source
[5] = target: T1, KDR; test: cell-based or functional assay; remark: listed apart in the source
[6] = target: KDR endogenously expressed on human umbilical vein endothelial cells (HUVEC) (human, UniProt P35968 20-1356); test: cell-based or functional assay
KDR endogenously expressed on human umbilical vein endothelial cells (HUVEC), sequence (P35968 20-1356): as above

[7] = target: T2, soluble KDR extracellular domain (ECD) (Calbiochem) (human, UniProt P35968 20-764); test: High Antigen ELISA, KDR coat 500 ng/mL, supernatant 1:25
T2 construct: extracellular domain; Bought protein; also called KDR-ECD; VEGF Receptor 2 D1-7, Cat. #676490
T2 sequence (P35968 20-764): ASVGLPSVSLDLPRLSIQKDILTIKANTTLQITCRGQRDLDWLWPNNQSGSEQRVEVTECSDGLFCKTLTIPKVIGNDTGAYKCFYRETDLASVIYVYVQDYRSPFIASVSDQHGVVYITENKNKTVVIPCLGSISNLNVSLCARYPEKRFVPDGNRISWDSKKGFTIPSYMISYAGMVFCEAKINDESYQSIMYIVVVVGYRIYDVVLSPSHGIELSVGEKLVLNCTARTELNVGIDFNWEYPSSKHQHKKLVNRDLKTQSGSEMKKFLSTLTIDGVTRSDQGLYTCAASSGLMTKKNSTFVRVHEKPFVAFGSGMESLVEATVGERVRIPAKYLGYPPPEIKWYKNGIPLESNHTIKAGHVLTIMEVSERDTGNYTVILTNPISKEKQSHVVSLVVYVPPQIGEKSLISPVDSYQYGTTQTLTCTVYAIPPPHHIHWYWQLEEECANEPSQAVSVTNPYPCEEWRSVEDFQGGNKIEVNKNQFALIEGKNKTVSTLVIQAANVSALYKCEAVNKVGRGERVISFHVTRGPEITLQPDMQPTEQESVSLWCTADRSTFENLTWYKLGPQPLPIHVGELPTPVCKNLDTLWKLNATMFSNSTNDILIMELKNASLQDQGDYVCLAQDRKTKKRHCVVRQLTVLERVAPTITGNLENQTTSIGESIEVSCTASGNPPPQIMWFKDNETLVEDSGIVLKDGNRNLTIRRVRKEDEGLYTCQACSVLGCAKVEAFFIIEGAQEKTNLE
Description: (§1) ELISA plates were coated with a greater amount of KDR (at 500 ng/mL) in comparison with the Limited Antigen Quantitation assay described below. Sample containing antibody (Ab) was titrated on the KDR-coated ELISA plates and was incubated overnight at 4° C. to allow Ab binding to approach equilibrium. Titration of Ab in sample covered a dilution range of 1:25 to 1:18,225. A standard curve of KDR-specific antibody of known concentration was used to define the linear range of the assay. Data within the linear range were used to derive the relative concentration of KDR-specific Ab in each titrated sample. The high KDR concentration and the overnight incubation limited the effect of Ab affinity, allowing quantitation of the relative amount of KDR-specific Ab present in each sample.

[8] = target: T2, soluble KDR extracellular domain (ECD) …; test: High Antigen ELISA, KDR coat 500 ng/mL, supernatant 1:75
Description: as §1

[9] = target: T2, soluble KDR extracellular domain (ECD) …; test: High Antigen ELISA, KDR coat 500 ng/mL, supernatant 1:225
Description: as §1

[10] = target: T2, soluble KDR extracellular domain (ECD) …; test: High Antigen ELISA, KDR coat 500 ng/mL, supernatant 1:675
Description: as §1

[11] = target: T2, soluble KDR extracellular domain (ECD) …; test: High Antigen ELISA, KDR coat 500 ng/mL, supernatant 1:2025
Description: as §1

[12] = target: T2, soluble KDR extracellular domain (ECD) …; test: High Antigen ELISA, KDR coat 500 ng/mL, supernatant 1:6075
Description: as §1

[13] = target: T2, soluble KDR extracellular domain (ECD) …; test: Limited Antigen ELISA, KDR coat 25 ng/mL, supernatant 1:25
Description: (§2) Samples containing one concentration of antibody (Ab) (1:25 dilution) were incubated overnight to allow Ab binding to approach equilibrium. The low antigen concentration limited the effect of antibody concentration, allowing ranking of the antibodies based on their relative affinity.

[14] = target: T2, soluble KDR extracellular domain (ECD) …; test: Limited Antigen ELISA, KDR coat 50 ng/mL, supernatant 1:25
Description: as §2

[15] = target: T2, soluble KDR extracellular domain (ECD) …; test: High Antigen ELISA, KDR coat 500 ng/mL, supernatant 1:18,225
Description: as §1

[16] = target: T2, soluble KDR extracellular domain (ECD) …; test: Limited Antigen ELISA, KDR coat 12.5 ng/mL, supernatant 1:25
Description: as §2

[17] = target: T2, soluble KDR extracellular domain (ECD) …; test: Limited Antigen ELISA, KDR coat 6.25 ng/mL, supernatant 1:25
Description: as §2

[18] = target: T2, soluble KDR extracellular domain (ECD) …; test: Limited Antigen ELISA, KDR coat 3.125 ng/mL, supernatant 1:25
Description: as §2

Binder	Activity at 133 nM (% Inhibition), 1-hour Pre-incubation at 4° C., Average [1] [%]	Activity at 133 nM (% Inhibition), 1-hour Pre-incubation at 4° C., N = 1 [1] [%]	Activity at 133 nM (% Inhibition), 1-hour Pre-incubation at 4° C., N = 2 [1] [%]	Activity at 133 nM (% Inhibition), 24-hour Pre-incubation at 37° C., Average [2] [%]	Activity at 133 nM (% Inhibition), 24-hour Pre-incubation at 37° C., N = 1 [2] [%]	Activity at 133 nM (% Inhibition), 24-hour Pre-incubation at 37° C., N = 2 [2] [%]	% of Max VEGF KDR pTyr Activity (at 133 nM antibody concentration), Average [3] [%]	% of Max VEGF KDR pTyr Activity (at 133 nM antibody concentration), N = 1 [3] [%]	% of Max VEGF KDR pTyr Activity (at 133 nM antibody concentration), N = 2 [3] [%]	Activity at 133 nM Antibody Concentration (% Survival Inhibition), Average [4] [%]	Activity at 133 nM Antibody Concentration (% Survival Inhibition), N = 1 [4] [%]	Activity at 133 nM Antibody Concentration (% Survival Inhibition), N = 2 [4] [%]	% Inhibition of VEGF165-mediated 6-keto Prostaglandin F1α release at 133 nM Antibody Concentration, Average [5] [%]	% Inhibition of VEGF165-mediated 6-keto Prostaglandin F1α release at 133 nM Antibody Concentration, N = 1 [5] [%]	% Inhibition of VEGF165-mediated 6-keto Prostaglandin F1α release at 133 nM Antibody Concentration, N = 2 [5] [%]	further results
B1	27	32	21	73	73	73	10	9	11	-91	-95	-87	9	6	11	
B2																VEGF-E-mediated Survival % Inhibition (Average) [6]: 2%; VEGF-E-mediated Survival % Inhibition (n = 1) [6]: -2%; VEGF-E-mediated Survival % Inhibition (n = 2) [6]: 6%; ELISA reading [7]: 6; ELISA reading [8]: 6; ELISA reading [9]: 4.49; ELISA reading [10]: 2.24; ELISA reading [11]: 0.69; ELISA reading [12]: 0.34; ELISA reading [13]: 0.65; ELISA reading [14]: 1.38; ELISA reading [15]: 0.26; ELISA reading [16]: 0.32; ELISA reading [17]: 0.2; ELISA reading [18]: 0.12
B3	80	80	80	72	76	69	14	12	15	65	65	64	68	66	70	
